Source: US20250180556A1 (ECOLE POLYTECHNIQUE FEDERALE DE LAUSANNE EPFL, published 2025)

B1: scFv of monoclonal antibody mAb5 (N-VH-linker-VL-C) (scFv)
scFv: EVQLVQSGAEVKKPGESLKISCKGSGYSFTSYWIGWVRQMPGKGLEWMGIIYPGDSDTRYSPSFQGQVTISADKSISTAYLQWSSLKASDTAMYYCARAKVGQRYSSGRYFFDYWGQGTLVTVSSGGGGSGGGGSGGGGSTEIVLTQSPATLSLSPGERATLSCRASQSVSSYLAWYQQKPGQAPRLLIYDASNRATGIPARFSGSGSGTDFTLTISSLEPEDFAVYYCQQGAKDNPMTFGQGTKVEIKR
notes: Selected from the Tomlinson I,J human scFv library (pIT2 vector); also called scFv based on mAb5
B2: scFv of monoclonal antibody mAb2 (N-VH-linker-VL-C) (scFv)
scFv: EVQLVQSGAEVKKPGESLKISCKGSGYSFTSYWIGWVRQMPGKGLEWMGIIYPGDSDTRYSPSFQGQVTISADKSISTAYLQWSSLKASDTAMYYCARLATGPHGIASAGRRYLDYWGQGTLVTVSSGGGGSGGGGSGGGGSTQSVLTQPPSVSAAPGQKVTISCSGSSSNIGNNYVSWYQQLPGTAPKLLIYDNNKRPSGIPDRFSGSKSGTSATLGITGLQTGDEADYYCGTWDSRGFGVFGGGTKLTVLG
notes: Selected from the Tomlinson I,J human scFv library (pIT2 vector); also called scFv based on mAb2
B3: scFv of monoclonal antibody mAb1 (N-VH-linker-VL-C) (scFv)
scFv: EVQLVQSGAEVKKPGESLKISCKGSGYSFTSYWIGWVRQMPGKGLEWMGIIYPGDSDTRYSPSFQGQVTISADKSISTAYLQWSSLKASDTAMYYCARAGFRGYCSGGSCYRLPYWGQGTLVTVSSGGGGSGGGGSGGGGSTQSVLTQPPSVSAAPGQKVTISCSGSSSNIGNNYVSWYQQLPGTAPKLLIYDNNKRPSGIPDRFSGSKSGTSATLGITGLQTGDEADYYCGTWDVLAARSVFGGGTKLTVLG
notes: Selected from the Tomlinson I,J human scFv library (pIT2 vector); also called scFv based on mAb1

How the values were obtained:
[1] = target: T1, glutathione S-transferase (GST)-HmtA chimeric construct, biotinylated in vivo (Methanobrevibacter smithii, biotinylated in vivo by bacteria at the N-terminus (GST) end); assay: ELISA (figure legend)
T1 construct: The construct was immobilised on coated polystyrene plates; also called GCJ construct; HmtA containing construct; not shown: glutathione S-transferase (GST)
Description: (§1) The binding properties of all antibodies were tested by ELISA. A glutathione S-transferase (GST)-HmtA chimeric construct was prepared and further biotinylated in vivo by bacteria at the N-terminus (GST) end of the HmtA construct (GCJ construct). The construct was immobilized in coated polystyrene plates. A control chimeric GST construct (GCH) lacking HmtA was prepared, biotinylated and immobilized analogously.

[2] = target: T1, glutathione S-transferase (GST)-HmtA …; assay: ELISA, biotinylated GST-HmtA immobilised on coated plates
Description: as §1

T1 sequence (chain, as listed by the source mutant): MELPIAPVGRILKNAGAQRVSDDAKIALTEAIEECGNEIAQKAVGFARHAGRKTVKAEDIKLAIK

Row | binding result [1] | binding result [2] | Binder
1 | binds |  | B1
2 |  | binds | B2
3 |  | binds | B3
